Assay results as given in the supplement of paper PMC10065799, “High-throughput profiling of sequence recognition by tyrosine kinases and SH2 domains using bacterial peptide display” (eLife, 2023).

tested on: Fer (mouse); assay: phosphorylation enrichment, bacterial display (enrichment ratio); higher = better substrate or ligand; peptides without Tyr show the background
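Further: 11-residue human phosphosite peptides and single-mutation variants displayed on the E. coli surface, counted by deep sequencing, each peptide's frequency after selection divided by its frequency in the unselected input library; frequency after pTyr selection over input frequency; kinase dosed for 20-30% of maximal phosphorylation in three min.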

Compared with QTPVLYAMLDH [MPZ_Y220], VPLATYMRIFK [RPL21_Y30_YF] is lower in phosphorylation enrichment: 9.39 for the first, 0.406 for the second.

First: WIPIQYLIISE [NOG_Y222_P223L]
Second: FHIDHYLGKEM [G6PD_Y202_R198H_YF]
The phosphorylation enrichment of the first is higher: 0.666 for the first, 0.342 for the second.

Going from KVKPIYFRTQG [AR_Y916_H918R] to FIPSNYVAEDR [FRK_Y104_YF], the phosphorylation enrichment falls from 0.477 to 0.427.

Compared with IALNSCHSRNC [IFNGR1_Y397_Y397C], GVVVPYEPPEV [TP53_Y220_S215G] is higher in phosphorylation enrichment: 0.379 for the first, 0.563 for the second.

First: TGDRPYVCPFD [YY1_Y383]
Second: AFRHGYFDEEM [PLEC_Y2971_R2969H_YF]
The phosphorylation enrichment of the first is lower: 0.431 for the first, 0.593 for the second.

First: GLAKEYTDPET [CSNK1G2_Y195_I196T]
Second: RMDGKYACSFT [FLNB_Y704_T703K_YF]
The phosphorylation enrichment of the first is lower: 0.398 for the first, 0.701 for the second.

Going from VDYQPYRKHKY [TEX37_Y28] to RSHRSYSCQVM [IGLL1_Y192_R189H], the phosphorylation enrichment falls from 0.425 to 0.416.

First: EKQARYEIVVE [CDH5_Y223]
Second: QLHRKYCLSPR [HJURP_Y445_E444K]
The phosphorylation enrichment of the first is lower: 0.466 for the first, 0.603 for the second.

Compared with PAKPRYRARQR [KCNJ11_Y26_E23K], GCRSKYVGLWG [KCNQ1_Y184] is lower in phosphorylation enrichment: 0.767 for the first, 0.408 for the second.

First: KKHIPYKEHKS [CSNK1G1_Y205_R206K]
Second: LAEMNYVHQDL [EPHB1_Y740_R743Q]
The phosphorylation enrichment of the first is higher: 1.2 for the first, 0.716 for the second.

First: GEFHVYRHLRW [PRKRIP1_Y82_R87W]
Second: AEDKPYAELWT [MPI_Y46_M51T]
The phosphorylation enrichment of the first is lower: 0.413 for the first, 7.1 for the second.

First: FGSVMYEFVGK [SLC18A1_Y251]
Second: FVTSMYNEILM [TRPV1_Y310]
The phosphorylation enrichment of the first is higher: 15.1 for the first, 3.38 for the second.

Compared with FLGRDYLETLM [DUS3L_Y610_YF], VTQEQYELFCE [CBL_Y368_YF] is higher in phosphorylation enrichment: 0.591 for the first, 0.737 for the second.

First: TDKLFYIYTSG [SLC27A4_Y243]
Second: LMVFEYMRHGN [NTRK1_Y591_D596N]
The phosphorylation enrichment of the first is higher: 0.517 for the first, 0.466 for the second.

First: EEKKKYFDAKI [CASP5_Y103_T106A_YF]
Second: AGQEKYSAMRD [HRAS_Y64_E63K]
The phosphorylation enrichment of the first is higher: 0.401 for the first, 0.37 for the second.

Compared with ILDEAYVMAGA [ERBB2_Y772_V777A], SQQTYYRVSNM [ABCD1_Y181] is lower in phosphorylation enrichment: 0.516 for the first, 0.401 for the second.

Work on MKALGYFAVVT [OPA1_Y498] yielded a phosphorylation enrichment of 0.655.

target: Jak2 (UniProt O60674); assay: as above
Sequence (O60674 whole entry, looked up): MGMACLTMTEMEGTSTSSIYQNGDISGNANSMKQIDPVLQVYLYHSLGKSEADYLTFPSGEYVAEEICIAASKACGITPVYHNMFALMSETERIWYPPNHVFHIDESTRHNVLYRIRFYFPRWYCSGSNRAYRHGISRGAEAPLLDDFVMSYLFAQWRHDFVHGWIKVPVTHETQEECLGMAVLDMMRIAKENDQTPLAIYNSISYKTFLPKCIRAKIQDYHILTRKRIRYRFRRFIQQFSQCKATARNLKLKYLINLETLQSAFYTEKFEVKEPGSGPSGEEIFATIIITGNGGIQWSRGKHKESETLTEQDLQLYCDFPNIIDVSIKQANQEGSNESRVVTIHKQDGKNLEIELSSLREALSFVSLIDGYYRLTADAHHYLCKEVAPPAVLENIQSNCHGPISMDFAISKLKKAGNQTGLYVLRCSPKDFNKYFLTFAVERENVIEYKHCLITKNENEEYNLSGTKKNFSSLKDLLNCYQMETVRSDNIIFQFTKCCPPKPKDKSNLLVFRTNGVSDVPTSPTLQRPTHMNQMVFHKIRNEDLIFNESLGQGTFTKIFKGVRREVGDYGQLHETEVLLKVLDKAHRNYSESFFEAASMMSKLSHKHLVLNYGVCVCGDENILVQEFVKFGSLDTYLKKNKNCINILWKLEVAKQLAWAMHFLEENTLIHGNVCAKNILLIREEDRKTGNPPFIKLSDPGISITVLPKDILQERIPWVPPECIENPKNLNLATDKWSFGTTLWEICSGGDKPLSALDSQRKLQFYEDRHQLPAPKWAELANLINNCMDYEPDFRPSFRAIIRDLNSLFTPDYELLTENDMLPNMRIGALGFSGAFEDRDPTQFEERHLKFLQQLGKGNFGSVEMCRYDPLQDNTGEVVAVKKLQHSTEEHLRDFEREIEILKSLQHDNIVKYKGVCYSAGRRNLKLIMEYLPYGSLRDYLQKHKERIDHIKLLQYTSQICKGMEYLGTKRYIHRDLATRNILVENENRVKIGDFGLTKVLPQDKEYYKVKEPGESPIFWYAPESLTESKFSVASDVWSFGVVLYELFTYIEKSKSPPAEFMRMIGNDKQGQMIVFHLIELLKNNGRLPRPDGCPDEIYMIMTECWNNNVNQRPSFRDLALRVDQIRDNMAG

Going from QTPVLYAMLDH [MPZ_Y220] to VPLATYMRIFK [RPL21_Y30_YF], the phosphorylation enrichment falls from 0.845 to 0.614.

First: WIPIQYLIISE [NOG_Y222_P223L]
Second: FHIDHYLGKEM [G6PD_Y202_R198H_YF]
The phosphorylation enrichment of the first is higher: 1.2 for the first, 0.467 for the second.

Compared with KVKPIYFRTQG [AR_Y916_H918R], FIPSNYVAEDR [FRK_Y104_YF] is higher in phosphorylation enrichment: 0.491 for the first, 0.564 for the second.

Going from IALNSCHSRNC [IFNGR1_Y397_Y397C] to GVVVPYEPPEV [TP53_Y220_S215G], the phosphorylation enrichment rises from 0.375 to 1.25.

Compared with TGDRPYVCPFD [YY1_Y383], AFRHGYFDEEM [PLEC_Y2971_R2969H_YF] is higher in phosphorylation enrichment: 0.653 for the first, 1.3 for the second.

First: GLAKEYTDPET [CSNK1G2_Y195_I196T]
Second: RMDGKYACSFT [FLNB_Y704_T703K_YF]
The phosphorylation enrichment of the first is higher: 1.9 for the first, 0.929 for the second.

Compared with VDYQPYRKHKY [TEX37_Y28], RSHRSYSCQVM [IGLL1_Y192_R189H] is higher in phosphorylation enrichment: 0.483 for the first, 0.57 for the second.

First: EKQARYEIVVE [CDH5_Y223]
Second: QLHRKYCLSPR [HJURP_Y445_E444K]
The phosphorylation enrichment of the first is higher: 0.846 for the first, 0.527 for the second.

First: PAKPRYRARQR [KCNJ11_Y26_E23K]
Second: GCRSKYVGLWG [KCNQ1_Y184]
The phosphorylation enrichment of the first is higher: 0.955 for the first, 0.605 for the second.

Going from KKHIPYKEHKS [CSNK1G1_Y205_R206K] to LAEMNYVHQDL [EPHB1_Y740_R743Q], the phosphorylation enrichment falls from 3.96 to 0.744.

Compared with GEFHVYRHLRW [PRKRIP1_Y82_R87W], AEDKPYAELWT [MPI_Y46_M51T] is lower in phosphorylation enrichment: 0.995 for the first, 0.958 for the second.

First: FGSVMYEFVGK [SLC18A1_Y251]
Second: FVTSMYNEILM [TRPV1_Y310]
The phosphorylation enrichment of the first is lower: 1.38 for the first, 1.39 for the second.

Compared with FLGRDYLETLM [DUS3L_Y610_YF], VTQEQYELFCE [CBL_Y368_YF] is higher in phosphorylation enrichment: 0.748 for the first, 1.54 for the second.

Compared with TDKLFYIYTSG [SLC27A4_Y243], LMVFEYMRHGN [NTRK1_Y591_D596N] is higher in phosphorylation enrichment: 1.48 for the first, 1.54 for the second.

Going from EEKKKYFDAKI [CASP5_Y103_T106A_YF] to AGQEKYSAMRD [HRAS_Y64_E63K], the phosphorylation enrichment falls from 0.684 to 0.618.

Going from ILDEAYVMAGA [ERBB2_Y772_V777A] to SQQTYYRVSNM [ABCD1_Y181], the phosphorylation enrichment rises from 0.986 to 6.19.

Work on MKALGYFAVVT [OPA1_Y498] yielded a phosphorylation enrichment of 1.62.
